Assay: soluble on expression in E. coli; label from the status in PepcDB or PDB records

Row | Sequence | soluble on expression in E. coli
1 | MSLNDQYEALYQTFRWLVPTQFNIADACCHRWAASSPDARRIAIYYEDEAGNREVWTYARLAEAANQLANGLVKMGVERGDRVGVVLGQRPETVVAHMAIYSVGAVVLPLSPLFGPEALESRLRDADARVAIVDYASSANLLAISDNCPNLHQIIGIGFADERVLPWRSLLARQPNEFKMVATRASDPAILMYTSGTTGAPKGALLPHSVLIGNLPGFVASQDWFPRPGDVFWSPADWAWTGGMMDALLPTLYFGHPIVGTRGRFTPERAFELMERYQVTNTFLFPTALKMMMKSVPEPRGRYQLALRSIMSAGESVGETVFEWCEQALGITPNEMFGQTELNYVVGNSNRRWPARPGSMGRPYPGHRVAVIDEAGRPVKPGETGEVALNRFDIHGFPDPVLFLGYWRNEAATAAKFTDDWCRTGDLASIDADGYLWYAGRADDVFKSAGYRIGPGEIENCLLGHPAVANAAVVPKPDAERGALVKAYVVLTPEYQGRDPDSITQVLQEHVRDRLAPYEYPKEIEYVDALPMTTTGKIQRAVLRRREAERASGAHSEGHHHHHH | not soluble
2 | MSSGDQKVKEMFIEQGLHVDWLVRAHTVNSIEGLVYLSEQRHKWAEADQKVIFRILQDYKNSDGELLPEHNPAAPINRKRGTLKTELETFYDVPQVRTLTCELLDMVKEEPSIWDKIRCVDFGCHQRMRQAWCSISLKLGGWGAIQHVHMLKQLYRKKRDLYNVQYLRSGREFEYCEKLSFLKDVLEMAKNDPLDKNIQLDEHLKTATPIIDFDAELLAAPAEIQQILREISEKIDKVTTSQSPGFLAEYLATCCNEVVKHRETLATAGLGDDFN | not soluble
3 | GMSLAPWRGAIAHALHRNRSLVYARYLQLATVQPNGRPANRTLVFRGFLEDTNQLRFITDTRSAKADQIQQQPWAEICWYFPNTREQFRMAGDLTLISSDDSHQDLQPARIAMWQELSDAARLQFGWPYPGKPRIKESGAFEPSPPDPIEPVPNFCLLLLDPVQVDHLELRGEPQNRWLYHRNDQQEWSSEAINP | soluble
4 | MSSQTILSVNNLSVSFTTNDGIVDAVKNVSFELQAGETLSIVGESGSGKSVSTNALMTLLPDNAIVHPDSSIMFEGESILDKTERQMQRIRGDRIGMIFQEPMTSLNPYMRVGIQVAEAMMCHRSVNQRKAKERVLELFDLVHLPNPQQAYDKYPHEFSGGQLQRIMIAMALINEPDILIADEPTTALDVTVQAEVLLLIKEIQAKMGMAILFITHDLGVVKHFADRVLVMCKGEVVEEGITEHLFSEPQHEYTKMLINSIPKGSKTPVDEKASELLNAEDIR | not soluble
5 | PEHIRQMAQAVEGVTPRALPDLPVACRLSGLEPLTIEKETLFINVGERTNVTGSARFKRLIKEEQYDEALEVARQQVENGAQIIDINMDEGMLDAQACMVRFLNLCASEPEISKVPIMVDSSKWEVIEAGLKCIQGKGIVNSISLKEGKEKFVEQAKLIRRYGAAVIVMAFDEVGQAETRTRKLEICTNAYRILVDEVGFPPEDIIFDPNIFAVATGIDEHNNYAVDFIEAVADIKRDLPHAMISGGVSNVSFSFRGNNYVREAIHAVFLYHCFKNGMDMGIVNAGQLEIYDNVPEKLREAVEDVVLNRRDDATERLLDIAAEYADKGVGKEEDASAL | not soluble
6 | MTMSLEVFEKLEAKVQQAIDTITLLQMEIEELKEKNNSLSQEVQNAQHQREELERENNHLKEQQNGWQERLQALLGRMEEV | soluble
7 | KSIHDAGQRVQIYFSDAAGLVAGRTTIRYQGLEVGMVRDINLSEDLGSIYVDADIYPEATKLLNDKTRFWLVKPTASLTGVSGLDALVSGNYISIQPGDGQEFETTFHALDSAPTDLRVSQGLNIKLKSRDLGGVSIGSQIVYKKIPIGAVYSYQLDEDAKSITIQANIQEQYRHIINDRSRFWNVSGIGASIGFEGVDVRLESMSALLGGAIAVDSPDDGEPVEENTEFRLYKDLKTAGRGIAIKIALPDDNKVSSEGAPIMYRGIEIGQVTDLSLSEGREVILASAAIQPAFSDMLTTGTRFVLEEAKVSLSGVENIANLVRGNFLTIVPGDGERSRRFTAIRKNVFNQQQEKSIAIRLISDNSFGLDSGAN | not soluble
8 | MRILVVRHGLPEDPRCFAYDPVQRLIAIGTGRGHIRIIGDAGVDYLLKHESGEPVLHMQFLVNEGGLITSCGTDSIHLWNYRQKTAEIVHTVQLSKESVSCIHLPVAGKWLFIGTDKGNVYFLCLNSFLLSPYVINWNKAIDLSCRVHPGPVRQLAVSPAENTKLLIVYDKGIVVQWNLGTREVDRYPLDPPIKSVNWHFDGRQILTGNVDGSISLYNHKKSTEAIQRTTPHGSGPCRPIQQVEWKHMSETESIIMFSGGMPTDDGLPMPALTILKGGKSATVLEMDWPIIQFIPLNQNIWNSIPQCPHSVAVLLKHDFMVLDLNQNGHPVIESPHAMNIHESPVTCMAYYSDCPLDLIGALTLVGTKQRNKEFSARSWPVTGGLGRECATGHQELVVTGHKDGSLKFWQETGEHLQILYKLKSSSHFERLEEMETSDKVSHAVKYIELCLESRQLLVAGISGQVTLFRFTKQEICGTIAVVNIPLLGNLSSNLPNNDFDKSPVPNGPGKEIRRQRKIVSRESTNSLDTSDSGDERIVPFKVRGAPVKRPPGFVPELACFVPWHSHAKVDQITTICLNSSYGIIAIGTSSGLALVDTTQCALIYSWTTNELYGSDPTPAIQLSMQLSDAASPLEIDEFENDDTLIYNTDTGNYTLRSTRNSLTPSSNGFLHPGEMPTRPKSAANSSNKSGGMMGLFRRNTAELAATIRERYQGNRSESATTDRPDVEHRGETPPPTPNEGNKVQKAGRSHSVKGSFIRRFAKSSSSKEKKEVKIEVDNQSNSGIERSRSFHSHISEEGDSQRESPSSGRQLNTSSPSTSSQSLERSMSTQPQESITSLSFIHSYSKKNDSKMSPCLWVGTSAGASLALNLILPEDRFTSTIVVAPSGTVVRLKGQVISQSFMDNTFCIISPASESYKEAAKEQSATSPDRSLLNRVNTKASLAPQYSSSIDSNDEISQILIVAAENEVKVVALPTFSQLYVQKFDEIPLVKATPTHIRGYPCLMCLSAAGQIIMLSLPSLRILQTSTIFPHSVEIDDPLCQKTAFSDHGLGVYMASQTEMEKYTMCSEIAEQTGESLGELFVPCEMPEQPKNNSFLKGVSSIFGGTPRNDPNDIDAILSENMGVKNSSGVNPMRSVARTIPGPSVQMDRAQAGGVSAGQAAAMALQNLNERTEKLNATVDATENLKNNAMSLSSRTGKLVEKYEKKKWYNF | not soluble
9 | MGSDKIHHHHHHAQNFSDYFTNKTLRIDYLFTGNADKQSICLDELSELPVWAGRRHHLSELPLEGNGQIVMRDVASGKVIYTTSFSSLFQEWLETDEAKEVTKGFENTYLLPYPIKPAEVEITLRNNKREVSANLKHVVKPDDILIHKKGLTHITPHKYLLKSGNEEQCIDVAILAEGYTTSEMETFYKDAAIACEALFSHEPFQSMKNRFNIVAVASPSADSGVSAPKQGAWKHTAFGSHFDTFYSDRYLTTSRVKAINDALAGIPYEHIIILANTEQYGGGGIYNAFTLTTAHHPNFRPVVVHEFGHSFGGLADEYFYDEDVMNGLYPLNIEPWEQNITTRINFASKWEDMLTKTTPVPTPVADKAKYPIGVYEGGGYSAKGIYRPAFDCRMRTNEYPTFCPVCQRAIQRIIEFYTGK | not soluble
10 | MTDQPISLEEIRLRLNELDDQLLSLLSERRKLSIEVAKSKVQTSKPVRDAVREQQLLVKLISNGRDKYELDAQYITKLFHTIIEDSVLLQQGYLQNLVNPQQSRKPLARVAFLGAKGSYSHLASREYFSRKNTELIELNCEHFKEVTRTVESGHADYGVLPIENTSSGSINEVYDLLQHTTLYIVGELTQPIEHCLVATKDIRLEDIKTLYSHPQPHQQCSEFLSRMKGVKLESCASTADAMQKVQEMNRDDVAAIGNASSGKLYGLQAIQGNIANQTENHTRFIVVARKPVEVSTQIPAKTTLIMSTSQEAGSLVETLLVLQRYGINMTKLESRPIMGNPWEEMFYVDLEAHLGSTEMQQALQELTKITKHLKVLGCYPSENIKPTQVKLS | not soluble
11 | MTIAVDFDGTIVEHRYPRIGEEIPFAVETLKLLQQEKHRLILWSVREGELLDEAIEWCRARGLEFYAANKDYPEEERDHQGFSRKLKADLFIDDRNVGGIPDWGIIYEMIKEKKTFADIYSQQREENTSQKKKRKWLPF | soluble
12 | MFNKKMVAMAMTVPLVMGTLSTVSAVETKKQVKVEAYSPQKKAIEYLKGNANQYGLKPDLSDLQYISTTETPVASYVRFQQVVNGAPVFSNQITVTLNGEGKGVLAVSDYQPIKAVKQVTEKISEKDAIQKSMAYVGEASEQNLWAPTEKEFGYIIEEGIARPVYKVVVHSNNPFGAWETFIDAENGKLIKKVDINRKVEGTGKVFLPNPVVSSGSLAGLKDNNDADSTALTNQLKTVTLKGLDGTGFLIGEYVTISSKARTKSTNLQFNYTRANDSFEDVMSYYHIDTLQRYIQSLGFQNINNRSIKVNVNGTTADNSFYSPTTKALTFGTGGVDDAEDAGIIAHEYGHSIQDNQVPGFGSSAEGGAMGEGFGDFLGATYEDAVSTTGYGKACVGEWDAAAYSSSDPTCLRRLDTNKVYPKDMKNQVHADGEIWSQGQYEMAQAFGRDVATKIILQSHWSLTPNSKFSDGAKAIKQADALLYGGQHAADIDRIWAARGISTN | not soluble
13 | MAHHHHHHMSEEKGAYLVFDNASNGTLFIVWKKEKVENALMFIKPTKEVPEFKFVNRNGKNELIRNLQSDKKLFYSGICQFVKEAKDIKGKLTLLQHFDSSFPIKVDLYFLKGSKVMPLNTGEPFVVQDIDAMSVLPKGSSSLKVKTMAKDMFVSRGNTEGASISF | not soluble
14 | MHVALHTVRMYPRNTSMVAIPSRELSPRRDGFRELLETNYQKRDLVHLTAGSVVPLLKNSIWLVVRGMVKLGAVSVHGDELLLGLAGPNEPFGEPLSTVEAYEAVALSDCDLLCLSANEVEQAPQLALAMMDAIGARYRQAEYMLALLGLRRVEERVRGFLEMLAQDYGQPCDDGLRLNLRLTHQEMASALSTTRVTVTRVIGLLRDEGWLKIDAQRHLVIAHLPRR | not soluble
15 | MKHWRPFRFPPLIDGAPLAPDAAAEVQASAADGFRQGMDAGYREGFDSGEAAGRDAGYQAGLEQGRAEGAAAARAETLAGLETLGAPLAAAIEQLNKLCRDYQAAQRDEVVDLVAKVARQVIRCELALKPVQILDLVEETLAALPQGAHSQGEVEVLLNPEECQRIRELAPERAAQWKLSADPSLAPGECRLRGAEFEADAGCQQRLERCVDSLREQLAAEEG | not soluble
16 | MSLSTQSEAALEAGLIATLRQMDYEYVQIVEEDNLYANFKRQLEIHNRKRLEEHGRTEFTAEEFEKILIYLEGGTRFEKAKKLRDLYPLDTADGQRIWVEFLNRQQWCQNEFQVSNQITVEGRKKCRYDVTILINGLPLVQIELKRRGVELKQAYNQIQRYHKTSFHGLFDYIQLFVISNGVNTRYFANNPNSGYKFTFNWTDAANHPFNELDKFAVFFLEKCTLGKIIGKYIVLHEGDKCLMVLRPYQFYAVEKILDRVQNSNDNGYIWHTTGAGKTLTSFKAAQLVSELDDVDKVMFVVDRHDLDTQTQSEYEAFEPGAVDSTDNTDELVKRLQSNSKIIITTIQKLNAAVSKTWYSSKIDAIRHSRIVMIFDECHRSHFGDSHKKIMKFFGNAQIFGFTGTPIFTENAVDGHTTKEIFGNCLHKYLIKDAIADENVLGFLVEYYHGNEIVDNDNQARMEEIAKFILNNFNKSTFDGEFDALFAVQSVPMLIRYYKIFRSLNPKIRIGAVFTYAANNSQDDEQTGMGTGQYAKESVGEADELQAIMDDYNENFGTSFTTENFRAYYDDINLRMKKKKADMKPLDLCLVVGMFLTGFDSKKLNTLYVDKNMEYHGLLQAFSRTNRVLNEKKRFGKIVCFRDLKNNVDTSIKLFSNSDNPEDIVRPPFEKVKQEYKSLSTDFLQKYPTPSSIDFLQSENDKKNFVLAFRDIIRKHAEIQIYEDYSEDAEDLGMTEQQFNDYKSKYLDITVGFIDPPAAPSTVAEDPVPYGNNQGLEDIDFCLELLHSDIINVAYILALINDLDPYSDDYSEKRQNIIDTMIKDAGMRGKAKLIDGFIKKNVDEDKENFMNGRNKADGTNELEERLNQYIVSERNKAVNDLADEEQISAEVLNHYMKEYDYLQKEQPEIIQKALKEKHLGLIKTRRALTRIMERLRSIIKTFNEGHHHHHH | soluble

Reference: the DeepSol protein solubility set
